This data set in a line: soluble on expression in E. coli; label from the status in PepcDB or PDB records.
As for “MSSVLDVTKPDFDVEAFVVKLLREKSLDGLVKEEEEMVSAVRRLDSDVHQIVYENYNKFLTATNTVRKIQDEFTQLDSEMKSLSRSMSTISTLIGNLDGVLGEKRDDILQLGSSYKVVNSLKHIFDLPHVLRSEFDERNYGEVLRMFKLAEESLSQYKDVPTVQLVLQKSKKIYDMTENQLMDQLRNPASGAELVSEAVDLLLTIGRDEDEVQKVLLTCSEQSLRVDLKELSANHSDVLDLVDKASESFIPNLTLIATTHDRLFEDKREDLITVLKTEMNSLHALVSKVFLSSSDAKDCSIVVRALDRYFRKISTCRYVIPGLDFLPLTIELINAVSKHEIDLSLTRIKEELKNGLNEVRKALINEEKDLSALASKIEQVFVHQVKTALANLLLFTASDVTFANLPPDEFRQSFSFNAHERLLVQAFHRFSELADEYESGAGEIRFVDPRVHLVFAVALQHLSNKSAVYLLNLCREQFSLSPDDGLTDITVVMSEVKTRAQKLVRCYAEKTGLSMGETLIKGCAMLVQPAATPSAVRASVRRLVEEMNTCDSELTLLLGGDSKPKDSRVSRRPITTALDAARDSLWCERIDFHLQIHFNRASIITVIVKVVLKIFIESIRLQTYSKFGVEQVQVDCYYLQRCLAALVSDEVVVNSMVDQALSSALKRCQDPVLVHPSRLAQLCEQPPANRPSSQASSLGY”, the “soluble on expression in E. coli” value is “not soluble”.
In the case of “MSSVTAPRLDRATMGRKGGQKAAERWKTDPESDYATAQRETLAAANKRGARQGTGTRGRVLAVYSQTLVDTGEVPTARQIAGEIGITKRMVNIHLKELRDAGLVEQGLRDIWACGRNLGGFPV” it was “not soluble”; in that of “MSTFRLITGGIGTGKTLWTVEQLFKLKNLTPDRLVYTDITGIKHTGVTVVPPDFDWRNVEDNSLIIFDEVQYKELFSRHNSKRDKQILDLTTMRKRGIEIWCITQRARFLNQDVLGLVNEHIHLEKTGDKTARVYIWHEAETNITKTKKMFPFEKYVWQHPTDLYGFYESIKPDA”, “not soluble”; in that of “MSTGSVDSQQSGGTLDAASKNIDHVIDQARHRHHQHRSKFKEAIDYLDQIFEDLKKECDPDDKNNNDENNKPFDPPPTFVAVKKKPTPLATSSASTTAPAAKIASASDSKKPASSSSTISVKPTVRQKTSETSKSKPLQQAPPSPVEVVIPVRKLSQGATNNQAEPTVAETIVLAKKTDKMDFTRRWLQDDLKSLAHLPPANIAPNASYYQDFDEHSLGSCSAEVAAFNTTKEKKNGSKASRKVSDSSDMIRPRPFRPQPVYPMVDGFNGPSAFEPFSSHTLPRVASNDQIPSEMKRSGSQDPYNTLRSMRSEGDGFDSARPSPSAFQQVSPFHRGSSMRSSLRSLPDHSPVRQKNSSYEVAAKDPVLSIDQLVAELELNTENTFSPADKRRSFPTSFGRPQAHQAQQHHAPSDYEKPNRFRAETRHAPTRGRAQNFVAPVAEPMTSKAPIYSQAVRPKQQQQQKSLDEVTSMLNRAVSQFGNEQRQAYQHPTAYKQLSQQSFGSVHSNNAFETINQEKINPSRVEAMHNMFERGTAPTSWKMQQKDSYEDRSQKMSPLQEVTYASLNSYSPPPPPPSHPLPQNGSHGMARNTSQNQISYHEYTPQPPTTQPPQRPPGSANSSQGGYYSSNSSGIGSNYPQNQQNQMYNNPRRSLIIDQQSISSRMPSVENDDDDGFYDNIGIYNDDRRYSRGSELETSASFRQLPPASNTSKHNRIGSFLRKIGGGSSRPPGSAASLMSLNKIANETIIKPGGLMKSNSLSNEPWKKVMLNGGASMPREANNNHKTGLGARLKNSLFGSRKRLDG”, “not soluble”.
Consider “MSTINFANREINFKIVYYGPGLSGKTTNLKWIYSKVPEGRKGEMVSLATEDERTLFFDFLPLDIGEVKGFKTRFHLYTVPGQVFYNASRKLILRGVDGIVFVADSAPNRLRANAESMRNMRENLAEYGLTLDDVPIVIQVNKRDLPDALPVEMVRAVVDPEGKFPVLEAVATEGKGVFETLKEVSRLVLARVAGGS”, for which the “soluble on expression in E. coli” value is recorded as “soluble”.
In the case of “MSTINYDLSRIKALAFDVDGVLSSTTVPLHPSGEPMRTVNIKDGYAIQLAVKKGLHIAIITGGRTEAVRIRFAALGVKDLYMGSAVKIHDYRNFRDKYGLSDDEILYMGDDVPDIEVMRECGLPCCPKDAVPEVKSVAKYISYADGGRGCGRDVVEQVLKAHGKWMAEDAFGW” it was “not soluble”.
For “MSTLGDLLAEHTVLPGSAVDHLHAVVGEWQLLADLSFADYLMWVRRDDGVLVCVAQCRPNTGPTVVHTDAVGTVVAANSMPLVAATFSGGVPGREGAVGQQNSCQHDGHSVEVSPVRFGDQVVAVLTRHQPELAARRRSGHLETAYRLCATDLLRMLAEGTFPDAGDVAMSRSSPRAGDGFIRLDVDGVVSYASPNALSAYHRMGLTTELEGVNLIDATRPLISDPFEAHEVDEHVQDLLAGDGKGMRMEVDAGGATVLLRTLPLVVAGRNVGAAILIRDVTEVKRRDRALISKDATIREIHHRVKNNLQTVAALLRLQARRTSNAEGREALIESVRRVSSIALVHDALSMSVDEQVNLDEVIDRILPIMNDVASVDRPIRINRVGDLGVLDSDRATALIMVITELVQNAIEHAFDPAAAEGSVTIRAERSARWLDVVVHDDGLGLPQGFSLEKSDSLGLQIVRTLVSAELDGSLGMRDARERGTDVVLRVPVGRRGRLML”, the “soluble on expression in E. coli” value is recorded as “not soluble”.
For the sequence “MSTNEIYNREEVLLLIEKLLGNNIEIPILLMLLLGLRMGEATGLRWSDVDLDNNLINVNQILVYSNGKISFKEPKTPKSKRALSAPKELIEKLKIEKLRQSKLKLQGILENKNNLVCLNTNLNPFLPSSLRKTFHNFTKKNNLKKIRIHDLRHTSATLLLLGGTNMKVVSERLGHTDIKITMNRYSHVLKEMDKEASDNLSELLEHHHHHH”, the “soluble on expression in E. coli” value is given as “not soluble”.
Take “MSTPLMQRSLSPQEWQVFQRGDRWTGARLHQPLNLLLIGSKVLTSDLDHPPDPNLTYHALVNSVEGLSDSLLLVRFDPVQQRLVILSIPRDTLTFIPGRGDAKINEANALGGPALAAATVSELLGNVPIDRYLRINVQGIEKLIDALGGVTLDVPIAMRYRDESQHLYIDLQAGRHHLNGQQALQFLRFRYDALGDIGRVQRQQMFLRTLMEQTARPETLARTPHILSIIRENLDTNLTVEELMSLGQFLTRLPRSRVQFLLLPGNFNGTTEEVAVSYWLPNYQRIAWLTDQYFRDTPTADPRETGLPSPAQVRIAIQNTNLPQSLVMRLSEQLATAGYPHPLVAEPLPQPIPITRIIAQQGDLAAARQVQLLLGFGEVRVESTGVLASDVTIQLGDDARDRLQLRRTTSLLEHHHHHH”: the “soluble on expression in E. coli” value was “soluble”.
For the sequence “MSTPLSRVITNEIFRVPARRKPKPAVKPSDIPTLKDYTARLVDQKWLRLAARRKSA”, the “soluble on expression in E. coli” value was “not soluble”.
With “MSTPRIEHYTTDVHAHWEGIHPQDWAEVDLIGYENAMDKMYRTLCENPDAALVQVGHRSKLLNDHGSDYRFNGKFTSEQTKPERSHHDYNHFGKLMKWEGDRWYKYDFEVEVTDHTRSE”, the “soluble on expression in E. coli” value is recorded as “not soluble”.
With “MSTVKEAVDVEVPVHTAYNQWTQFEEFPHFMEGVEEVRQLDERHNHWTTQVSGVKREFDTEIVDQLPDERITWRTTTGDTNQKGTVRFQRLDDTHTRVELVMDVDPTGVAEKTGDMLGVIDRRVKGDMQRFKEYIEKRGGESGAWRGRIRPGELEHHHHHH”, the “soluble on expression in E. coli” value is “soluble”.
As for “MSTVNVQIGLHELLNGSNAQIQLSVPQLVEKVLMRNEGKLTSTGAVSASTGKYTGRSPKDKFIVKEASVADKIAWGAVNQPISEEHFNKLYTKVLEYLKEKEELFVFKGFAGADRNYRLPIQVINEYAWHNLFVHQLFIRPTEEELTTHESEFTIVSAPNFKADPAVDGTNSEAFIMVSFEKRIVLIGGTEYAGEMKKSIFSIMNFLLPEQDILSMHCSANVGEEGDVALFFGLSGTGKTTLSADPNRKLIGDDEHGWSDNGVFNIEGGCYAKCVNLSHEKEPQIFDAITFGSVLENVIINDQTRIADYNDTTLTENTRAAYPMHAIDNIILPSVAGHPNTIIFLTADASGVLPPISKLSKEQAMYHFLSGYTSKLAGTERGVTSPQATFSTCFGSPFLPLDASRYAEMLGEKIEKHDAKVFLVNTGWTGGEYGVGKRMNLGYTRAMIQAALNGELAKTETAKHDIFGLEVPLHVPGVPDEVLMPEQTWADKAAYKAKAIELANEFKANFKKFDSVSEDIINLGGPIA”, the “soluble on expression in E. coli” value was “not soluble”.
